The values that follow come from article PMC6708486 (Nature chemistry, 2019).

A word on the stoichiometry N: it is a count of units in the complex or per binding partner.

Residue numbers refer to the chain shown, from its start. In names and notes the source's numbering stands. Several values for one entry are separate records, joined by “and”; a condition that tells them apart may be missing. Equal values may be shown once.

Data set [1] concerns the molecule itself. Kind of data set: AUC.
Data set [2] deals with the molecule itself. The data set can be described thus: crystal structure.

B1: LepI (enzyme)
chain: ETVAAIKTLIQQLAQSTDQFGRAEINDALRELQYSLETPFDTVMRMSLDTCQVAVARIGSDLGLFKHLSQCASPQSAEELADHLGCGRELMSRLLRYMASVRMVQQTDDIKYISSNITQTLAVPGLEAGMRHAFENLWPVLMALPDFLAERKYPDIVDAKDTAFQKAFNTDQDCFHWLATQPTRIANFKVLLTDERTPNFLSTFPLEKELGSWSAEPEKALFVDIGGGMGHACIRLREKYPNQPGRVILQDLPPVLQAAQATLPLSGIESMPHNFHTPQPVQGAKFYFLRLILRDFPDHQALEILQNIVPAMDAESRIVIDDGVPPEKGARWAETGTDICIMSALGSKERTQRQWEELAAKAGLQLQALYQYTWPVVNAAMVFSLQ
For B1, the “stoichiometry N” value in data set [1] is 2 and 4.

B2: LepI (C52A) (enzyme)
chain: B1 chain with C51A
Regarding B2, the binding result in data set [2] was “binds”.
